This passage reports Kd results from paper PMC12309418, “Human Plastins are Novel Cytoskeletal pH Sensors with a Reduced F-actin Bundling Capacity at Basic pH” (Journal of molecular biology, 2025).

What all share (settings): both partners purified
In assay [1] the target is T1, Skeletal actin, filamentous (F-actin) (rabbit, UniProt P68135 1-377). The assay is described as follows: co-sedimentation; high-speed co-sedimentation (300,000 g, 30 min, 25 °C), 2 uM ABD1 with 0-125 uM F-actin, 10 mM HEPES pH 7.0, 30 mM KCl, 2 mM MgCl2, 0.5 mM EGTA; fraction depleted from the supernatant fit to a binding curve.
The target in assay [2] is T1, Skeletal actin, filamentous (F-actin). Briefly: co-sedimentation; high-speed co-sedimentation (300,000 g, 30 min, 25 °C), 2 uM ABD1 with 0-125 uM F-actin, 10 mM HEPES pH 8.0, 30 mM KCl, 2 mM MgCl2, 0.5 mM EGTA; fraction depleted from the supernatant fit to a binding curve.
For assay [3] the target is unchanged. Briefly: co-sedimentation; high-speed co-sedimentation (300,000 g, 30 min, 25 °C), 5 uM PLS2 with 0-100 uM F-actin, 10 mM HEPES pH 7.0, 30 mM KCl, 2 mM MgCl2, 0.5 mM EGTA; fraction of PLS2 in the pellet fit to a binding curve.
For assay [4] the target is unchanged. The assay is described as follows: co-sedimentation; high-speed co-sedimentation (300,000 g, 30 min, 25 °C), 5 uM PLS2 with 0-100 uM F-actin, 10 mM HEPES pH 8.0, 30 mM KCl, 2 mM MgCl2, 0.5 mM EGTA; fraction of PLS2 in the pellet fit to a binding curve.

B1: PLS2 ABD1 (a.a. 120-385) (domain or fragment)
chain: EEEKYAFVNWINKALENDPDCRHVIPMNPNTNDLFNAVGDGIVLCKMINLSVPDTIDERTINKKKLTPFTIQENLNLALNSASAIGCHVVNIGAEDLKEGKPYLVLGLLWQVIKIGLFADIELSRNEALIALLREGESLEDLMKLSPEELLLRWANYHLENAGCNKIGNFSTDIKDSKAYYHLLEQVAPKGDEEGVPAVVIDMSGLREKDDIQRAECMLQQAERLGCRQFVTATDVVRGNPKLNLAFIANLFNRYPALHKPENQDI
notes: source: E. coli BL21-CodonPlus(DE3)pLysS, purified (IMAC on cobalt resin, TEV cleavage, Superdex 200); not shown: His6, N-terminal, cleaved
The term Kd denotes the free concentration of one partner at which half of the binding sites on the other are occupied at equilibrium, for simple one-to-one binding. In the case of B1, the results for the Kd in assay [1] and in assay [2] were 24.7 µM and 13.9 µM, respectively.

B2: plastin 2 (PLS2), full-length (natural protein)
chain: MARGSVSDEEMMELREAFAKVDTDGNGYISFNELNDLFKAACLPLPGYRVREITENLMATGDLDQDGRISFDEFIKIFHGLKSTDVAKTFRKAINKKEGICAIGGTSEQSSVGTQHSYSEEEKYAFVNWINKALENDPDCRHVIPMNPNTNDLFNAVGDGIVLCKMINLSVPDTIDERTINKKKLTPFTIQENLNLALNSASAIGCHVVNIGAEDLKEGKPYLVLGLLWQVIKIGLFADIELSRNEALIALLREGESLEDLMKLSPEELLLRWANYHLENAGCNKIGNFSTDIKDSKAYYHLLEQVAPKGDEEGVPAVVIDMSGLREKDDIQRAECMLQQAERLGCRQFVTATDVVRGNPKLNLAFIANLFNRYPALHKPENQDIDWGALEGETREERTFRNWMNSLGVNPRVNHLYSDLSDALVIFQLYEKIKVPVDWNRVNKPPYPKLGGNMKKLENCNYAVELGKNQAKFSLVGIGGQDLNEGNRTLTLALIWQLMRRYTLNILEEIGGGQKVNDDIIVNWVNETLREAKKSSSISSFKDPKISTSLPVLDLIDAIQPGSINYDLLKTENLNDDEKLNNAKYAISMARKIGARVYALPEDLVEVNPKMVMTVFACLMGKGMKRV
notes: plastin 2 (PLS2, L-plastin, LCP1), human, full-length (FL) protein; Cloned in pColdI behind a 6xHis tag and TEV site; also called LCP1; L-plastin; source: E. coli BL21-CodonPlus(DE3)pLysS, purified (IMAC on cobalt resin, TEV cleavage, Superdex 200); not shown: His6, N-terminal, cleaved
B2: the figures for the Kd in assay [3] and in assay [4] were 31.7 µM and 17.7 µM, respectively.
